From patent US9802997B2, “Peptides and combination of peptides for use in immunotherapy against various tumors” (immatics biotechnologies GmbH, priority 2015, dated 2017)

Target: HLA-A*02:01 (Homo sapiens, UniProt P04439, D140Y/D185E/D98H/E176V/E277Q/G131W/G231S/I119V/I121R/I166T/I218V/L300P/L318F/N151K/N90K/P208A/P217A/Q86G/Q94H/R138H/R169H/T345S)
Test: MHC binding assay (UV-ligand exchange, beta2m ELISA)
Settings: binding to HLA-A*02:01, β2m ELISA
Method in brief: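 UV-exchange pMHC monomers, 100-fold diluted → streptavidin capture 1 h 37 °C → HRP anti-β2m 2 ug/ml 1 h 37 °C → TMB, A450. Yield from HLA-A*02:01/MLA-001 monomer standard curve, 15-500 ng/ml. Only stably bound peptides keep β2m-containing complexes intact.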

Substance	Peptide exchange (MHC class I binding score, peptide exchange yield)
128 (SILTNISEV; listed as Homo sapiens) [compound 128]	++ (≧20% = ++)
221 (IMLNSVEEI; listed as Homo sapiens) [compound 221]	++ (≧20% = ++)
185 (TLYQGLPAEV; listed as Homo sapiens) [compound 185]	++ (≧20% = ++)
100 (ALQSFEFRV; listed as Homo sapiens) [compound 100]	+++ (≧50 = +++)
122 (SIIDTELKV; listed as Homo sapiens) [compound 122]	+++ (≧50 = +++)
80 (VLTGQVHEL; listed as Homo sapiens) [compound 80]	+++ (≧50 = +++)
259 (GPGIFPPPPPQP; listed as Homo sapiens) [compound 259]	+ (≧10% = +)
177 (ALINVLNAL; listed as Homo sapiens) [compound 177]	+++ (≧50 = +++)
274 (TLYNPERTITV; listed as Homo sapiens) [compound 274]	+++ (≧50 = +++)
256 (FLNDIFERI; listed as Homo sapiens) [compound 256]	+++ (≧50 = +++)
248 (VLMQDSRLYL; listed as Homo sapiens) [compound 248]	+++ (≧50 = +++)
284 (KLMDPGSLPPL; listed as Homo sapiens) [compound 284]	++ (≧20% = ++)
282 (SLYALHVKA; listed as Homo sapiens) [compound 282]	++ (≧20% = ++)
96 (ALDTTRHEL; listed as Homo sapiens) [compound 96]	++ (≧20% = ++)
159 (QLGPVPVTI; listed as Homo sapiens) [compound 159]	+++ (≧50 = +++)
272 (FVMEGEPPKL; listed as Homo sapiens) [compound 272]	++ (≧20% = ++)
261 (GLAALAVHL; listed as Homo sapiens) [compound 261]	+++ (≧50 = +++)
169 (ALADLSVAV; listed as Homo sapiens) [compound 169]	+++ (≧50 = +++)
174 (ALYSGDLHAA; listed as Homo sapiens) [compound 174]	++ (≧20% = ++)
192 (TLLPSSGLVTL; listed as Homo sapiens) [compound 192]	++ (≧20% = ++)
222 (LLTGVFAQL; listed as Homo sapiens) [compound 222]	++ (≧20% = ++)

Substance	Peptide exchange (MHC class I binding score, peptide exchange yield)
168 (VIFEGEPMYL; listed as Homo sapiens) [compound 168]	+++ (≧50 = +++)
271 (VLIEYNFSI; listed as Homo sapiens) [compound 271]	+++ (≧50 = +++)
26 (VLDGKVAVV; listed as Homo sapiens) [compound 26]	+++ (≧50 = +++)
58 (HLLGEGAFAQV; listed as Homo sapiens) [compound 58]	+++ (≧50 = +++)
53 (AQHLSTLLL; listed as Homo sapiens) [compound 53]	+ (≧10% = +)
285 (MLLDTVQKV; listed as Homo sapiens) [compound 285]	+++ (≧50 = +++)
112 (ILAQDVAQL; listed as Homo sapiens) [compound 112]	+++ (≧50 = +++)
21 (YLMDDFSSL; listed as Homo sapiens) [compound 21]	+++ (≧50 = +++)
187 (SILKEDPFL; listed as Homo sapiens) [compound 187]	++ (≧20% = ++)
79 (TVLEEIGNRV; listed as Homo sapiens) [compound 79]	++ (≧20% = ++)
49 (KLIGNIHGNEV; listed as Homo sapiens) [compound 49]	++ (≧20% = ++)
115 (ILHGEVNKV; listed as Homo sapiens) [compound 115]	++ (≧20% = ++)
106 (VLLGSVVIFA; listed as Homo sapiens) [compound 106]	++ (≧20% = ++)
3 (RVIDDSLVVGV; listed as Homo sapiens) [compound 3]	+++ (≧50 = +++)
95 (KLIDEDEPLFL; listed as Homo sapiens) [compound 95]	+++ (≧50 = +++)
91 (LLPSIFLMV; listed as Homo sapiens) [compound 91]	++ (≧20% = ++)
37 (QIVELIEKI; listed as Homo sapiens) [compound 37]	++ (≧20% = ++)
132 (ALLNNVIEV; listed as Homo sapiens) [compound 132]	+++ (≧50 = +++)
178 (SLVSWQLLL; listed as Homo sapiens) [compound 178]	++++ (≧75% = ++++)
207 (KLFETVEEL; listed as Homo sapiens) [compound 207]	+++ (≧50 = +++)
107 (RVLPGQAVTGV; listed as Homo sapiens) [compound 107]	++ (≧20% = ++)

Substance	Peptide exchange (MHC class I binding score, peptide exchange yield)
150 (VLLDMVHSL; listed as Homo sapiens) [compound 150]	+++ (≧50 = +++)
146 (VVAAHLAGA; listed as Homo sapiens) [compound 146]	++ (≧20% = ++)
229 (YLYELEHAL; listed as Homo sapiens) [compound 229]	++ (≧20% = ++)
217 (LLWPSSVPA; listed as Homo sapiens) [compound 217]	+++ (≧50 = +++)
130 (QLYGSAITL; listed as Homo sapiens) [compound 130]	+++ (≧50 = +++)
165 (SLLDYEVSI; listed as Homo sapiens) [compound 165]	+++ (≧50 = +++)
124 (ALLLRLFTI; listed as Homo sapiens) [compound 124]	++ (≧20% = ++)
191 (AAIEIFEKV; listed as Homo sapiens) [compound 191]	+++ (≧50 = +++)
57 (TLYPGRFDYV; listed as Homo sapiens) [compound 57]	++ (≧20% = ++)
149 (NMADGQLHQV; listed as Homo sapiens) [compound 149]	++ (≧20% = ++)
250 (LMQDSRLYL; listed as Homo sapiens) [compound 250]	+++ (≧50 = +++)
48 (KISDFGLATV; listed as Homo sapiens) [compound 48]	+++ (≧50 = +++)
219 (GVVPTIQKV; listed as Homo sapiens) [compound 219]	++ (≧20% = ++)
265 (FLLDKPQDLSI; listed as Homo sapiens) [compound 265]	+++ (≧50 = +++)
94 (YLDEVAFML; listed as Homo sapiens) [compound 94]	+++ (≧50 = +++)
136 (LLWDAPAKC; listed as Homo sapiens) [compound 136]	+++ (≧50 = +++)
237 (ALLEQTGDMSL; listed as Homo sapiens) [compound 237]	+++ (≧50 = +++)
52 (TIGIPFPNV; listed as Homo sapiens) [compound 52]	++ (≧20% = ++)
247 (NLLIDDKGTIKL; listed as Homo sapiens) [compound 247]	++ (≧20% = ++)
268 (SLDKDIVAL; listed as Homo sapiens) [compound 268]	++ (≧20% = ++)
